The text below walks through data of patent US20080096222.

The target of series [1] is H3-GST with the mutation R2A.
For series [2], the target named is H3-GST with the mutation K4A.

B1: myc-tagged human haspin (protein)
chain: AASLPGPGSRLFRTYGAADGRRQRRPGREAAQWFPPQDRRRFFNSSGSSDASIGDPSQSDDPDDPDDPDFPGSPVRRRRRCPGGRVPKDRPSLTVTPKRWKLRARPSLTVTPRRLGLRARPPQKCSTPCGPLRLPPFPSRDSGRLSPDLSVCGQPRDGDELGISASLFSSLASPCPGSPTPRDSVISIGTSACLVAASAVPSDLHLPEVSLDRASLPCSQEEATGGAKDTRMVHQTRASLRSVLFGLMNSGTPEDSEFRADGKNMRESCCKRKLVVGNGPEGPGLSSTGKRRATGQDSCQERGLQEAVRREHQEASVPKGRIVPRGTDRLERTRSSRKSKHQEATETSLLHSHRFKKGQKLGKDSFPTQDLTPLQNACFWTKTRASFSFHKKKIVTDVSEVCSIYTTATSLSGSLLSECSNRPVMNRTSGAPSSWHSSSMYLLSPLNTLSISNKKASDAEKVYGECSQKGPVPFSHCLPTEKLQRCEKIGEGVFGEVFQTIADHTPVAIKIIAIEGPDLVNGSHQKTFEEILPEIIISKELSLLSGEVCNRTEGFIGLNSVHCVQGSYPPLLLKAWDHYNSTKGSANDRPDFFKDDQLFIVLEFEFGGIDLEQMRTKLSSLATAKSILHQLTASLAVAEASLRFEHRDLHWGNVLLKKTSLKKLHYTLNGKSSTIPSCGLQVSIIDYTLSRLERDGIVVFCDVSMDEDLFTGDGDYQFDIYRLMKKENNNRWGEYHPYSNVLWLHYLTDKMLKQMTFKTKCNTPAMKQIKRKIQEFHRTMLNFSSATDLLCQHSLFK
For the protein B1, the “phosphorylation of H3-GST by haspin (in vitro kinase assay)” value in series [1] and in series [2] was “substantially reduced phosphorylation of H3-GST by haspin” in each case.
